Reference: a protein production outcome set (Wang et al. 2014)

test: label from the status in PepcDB records

| Sequence | protein production |
| --- | --- |
| MGKTRAGRFALRGQRTALLHLETMTQAVDSADSVDPRALEALNRYFGYDSFRPGQSGIVSAILTGHDVLGVMPTGAGKSICYQIPAAILPGVAIVISPLISLMRDQVDALNDVGLPAAFINTTQTPDEQDLVFAQALSGQIKLLYVAPERLETERFRNFAVRVPISLVAVDEAHCVSQWGQDFRSSYLGIGEFIAGLPTRPTVAAFTATATERVRRDIVSILGLHTPSITVTGFDRPNLYFDVISMPRKDKASWVASYIASHPDESGIVYCATRKETEALAESLNSAVAELRAAGGADVSDIGTIAVAYHGGMSADAREKAQRDFVTDRVPVVVATNAFGMGIDKSNVRFVIHHNMPESIEAYYQEAGRAGRDGEPSRCTLLWNESDIVTRRRLLDSDYENERLTPEEQEAVRASKRRLLDAMVGYCRTTDCLHAYMTRYFGETAGAAAKTDGKCVGGCANCEHTFETIDVTDIARAISRCVHDVNQHVGSGKIVKVLRGSKAQDLSYLNPESLPSFGMLDEVPEARIRDVLSQMATDGFLTIAEGRLPIVGFGPRAAETVAPEFHYDIKKIKRADARARRTPDVSTPAVGSYVPDDGDEALFQKLRALRLDIARELGKPPYIVFSDKTLRDMVRVKPITDDQFLAVNGVGESKLKQYGERFLAAIREDSGDEA | failed |
| MGKVILVTGVSRGIGKSIVDVLFSLDKDTVVYGVARSEAPLKKLKEKYGDRFFYVVGDITEDSVLKQLVNAAVKGHGKIDSLVANAGVLEPVQNVNEIDVNAWKKLYDINFFSIVSLVGIALPELKKTNGNVVFVSSDACNMYFSSWGAYGSSKAALNHFAMTLANEERQVKAIAVAPGIVDTDMQVNIRENVGPSSMSAEQLKMFRGLKENNQLLDSSVPATVYAKLALHGIPDGVNGQYLSYNDPALADFMP | not failed |
| MGKVSFGFLGLMLVVVVIGVVECRRFEKETLGGGGGGGLGGGFGGGKGFGGGIGAGGGFGGGAGGGAGGGLGGGAGGGGGIGGGAGGGAGGGLGGGAGGGLGGGHGGGIGGGAGGGAGGGLGGGHGGGIGGGAGGGSGGGLGGGIGGGAGGGAGGGGGLGGGHGGGIGGGAGGGAGGGLGGGHGGGIGGGAGGGSGGGLGGGIGGGAGGGAGGGGGAGGGGGLGGGHGGGFGGGAGGGLGGGAGGGTGGGFGGGAGGGAGGGAGGGFGGGAGGGAGGGFGGGAGGGAGGGAGGGFGGGAGGGHGGGVGGGFGGGSGGGFGGGAGGGAGGGAGGGFGGGGGAGGGFGGGF | failed |
| MGKYTSEHHKDSRIVQLFQDGQYFYHKGLKAYRERNLSRASKLIQRAIFLEPENTGMLSQLAVIYTEMGFYQQSNELLDFILKNINEKMTECYYFKANNYAHLGLFQEAYKAAETYLKEDPDGEFSEENAELLDLLDMGEEDQGYSQFDQDDLILKQDRAKSLLENGQLQESIAMLEEIISDYPEFWSAYNNLALAYFYAGDVQKAKTTVFTVLEKSHGNLHALCNLLIFYHYERRDDKVEALSEQLSNIYPMLFEQRYKLGATLALVGRYDLGFKWLKSLYRMGFEGDETFYYWLACSAYYTGRVQFARSVWKKMQEEYPDDARMEPWKERKEKRPVQRPLEERLAAYYISGRKGEKAQLKAVLDSQMAKTPFEDQFVRLVLYGESGAAVDSKDALLAYRTAKAIEQADQSAMEQEAMCFWIFHVIQQIRAYGLQLKNAGGLAAAIYYIWKTEHQERLTKAETAKIFQISPGTLSKYERTLKEHL | failed |
| MGLAASEALQGSEQEINSAFSNQITPVISGDYIVWQDERDGNWDIYMYDMSAGRTETSLFNGPKDEIEPAISGSRVVLADNRRGNYDIYMYDISTKKEVQVTSDKSEQKEPAISEDIIVWTDRRNQNTDIYMYDLTTKEETRITDDKADQSQPAVWGNIIVWKDTRNGNEDIYMYDISAGKESPVVMDSAAQTNPVIEGDYIVWEDRRAGNLDIYMYEISTGKEKPVCTDPSPQKTPAISDGRIVWADGRIKGTNIFIYDIATGQEKTVSTASEYESNPSIDGNRIVWQDKRKGAMDIFMFTEDASETESTAGEKTEAETGSKAPLGIYPVSAGVIAAYLMINSGKKGKRKTLEHHHHHH | failed |
| MGLGIVLQGEKQVVIGDQILTYCAGQTMLTTIDVPVVSHTHNAKNHKPFLGLMLLLDLSMISKVVTQMEQLNIKEKVQPSFAVQPIDYVLIEAVQRLVTLLDEPILLSQLSPIIQQEIMIRLLAGVNGVYLRQLIRVGSVSERVAKVVNWLKQNFVETIRLDELADRFYMSSATLRQHFREVTGMSPLQYQKHLRLQQARHLLFNQNLEVGHTADLVGYESVSQFSREYARLFGATPLKDKQAAQLS | failed |
| MGLIDRYLAREILLPFAAALLFLTQILLATQILGQADVLFGSGVSLVDVGLVMLSLMPHLLGYVIPVAFLLGVVLGVGRLAEDREVVALGAAGLSPVRLVRVPLLLGLVVAALGAWLSLSVEPASIRAARLRLNDVVKRNVTNDVRGGTFYDQIPGYTIYTERARGGRWENVLIQDRSNPDAPMLALSRRGRLEPVGAGQDMRLVLEQGEVHREEVGTADYASAAFGKAELLVGLGTALSDRNVLAKSSREATVSDLRARAAAAREKGDVVEERRQEGYLHRKLSAPLVVVAFALLGVPLGAERRGGRAFGMGATFLLVVVHYLLLRGGEVLTQLGHLPAAFALQLPNLVLGAAGVALVLLMARRGPEAVR | failed |
| MGLRDAEVRRAWAARLASWLPAPPGDVLDLGCGTGSLSLLAAEQGHRVTGVDLSPAMVELARTKLAGRDAVFLTGDAAAPPVGEQRFDAVLVRHVLWTLPDPGRALRHWRQLLRPGGRLVLVEGVWGSVSPVGIPADRVTALLGPLTGQARVERLSDDPSLWGREVADERYAVVATYGLEHHHHHH | failed |
| MGMAAESQFHVLAVDDSLFDRKLIERLLQKSSCQVTTVDSGSKALEFLGLRQSTDSNDPNAFSKAPVNHQVVEVNLIITDYCMPGMTGYDLLKKVKESSAFRDIPVVIMSSENVPARISRCLEEGAEEFFLKPVRLADLNKLKPHMMKTKLKNQKLEEIETTSKVENGVPTAVADPEIKDSTNIEIEILPLQQDLLLVQQEEQTLSINNKRKSVEEGISTDRARPRFDGIATAV | failed |
| MGMTRNLLAAGLAAVLALPALAAELVMVEQHGCEWCARWNEEIAPIYPKTAEGAFAPLRRVDLRAIPADLETARRVVFTPTFLIVEDGRELARLEGYPGEDFFWPLLEQLLVDHAGFVPKKPGSS | failed |
| MGNFMDDQCLLHASALTYSTLLSIVPFFALAFAVLKGLGVQNTLEPFILDQVAAGSHEIVDRIVTYINNTKVGSLGAVGLVTLVVSTVTLLGNIEETFNSIWGVRETRSLYRRFSDYLSVVVFGPILIFAAISVTTTLESQKAVQWLIGTAYLGDVLVAAFRLVPYVSIWLALVFLYMLIPNTKVRFRSALVGGVIAGTLWQAAQWGYIHFQVGVAKYNAIYGTLAVLPVFMIWLYASWSIVLFGVEVVYAHQHRRTFRHETHIPDLEPAARERLALALLLEVCRTFFRDGAPWNAERLAERLDVPERTARETLGMLVAKGWLAESCGEETLYLPARELEHMRVRELIASLRGHAMPLATGRFDPAVEWLAARMEGAVAAELGEVNFRTLAEGGGVD | failed |
| MGNGLMSKKKKKKNNKYKKKRPNVSRNCDWSKFCSDVLRKIFETLKSPIDSHRAFARISIQFGKHARTSLHVHGDSYTKVILPPSGNCLLMVDRRLKFYILNLLTRTTINLPSMSLIRGGQVFFKPQNEWSNDSGCFFGPSRNGNVSYDFDSVEWKNSVAVLWINETTGDYVVAWTFIQHYLFFYKSGYWSWCNLNHNGKSLVVFDMACENNKLYLYTANHHIRIFDFSGAYPMEKKTENPYWKYLFNAVEEPWEYVWKRKIAIQKSSGEVLIILSLKQVFYEAERLLFYIFKMNLESFKWERVYSLGDEMLVFGQGVTIPTALKDLGDGIKSDSIYFVDKDVWPDHQDHDRRVSNCGVFNIATSKIKWPTKKYRSVNETQWFVLGVAY | failed |
| MGNHAGKRELNAEKASTNSETNRGESEKKRNLGELSRTTSEDNEVFGEADANQNNGTSSQDTAVTDSKRTADPKNAWQDAHPADPGSRPHLIRLFSRDAPGREDNTFKDRPSESDELQTIQEDSAATSESLDVMASQKRPSQRHGSKYLATASTMDHARHGFLPRHRDTGILDSIGRFFGGDRGAPKRGSGKVSSEE | failed |
| MGNKRFRSDNNAGKPTSVEATRIWATKVIEDFRASGNEVYTFEHNLSNNERGVIHQMCRKMGIQSKSSGRGEQRRLSIFKSRHKNGNKNEANEKSNKEKLKCVSFPPGADVILQELFTHYPPCDGDTAATSFTKYSGNKGKQGQWKDDFFRKPQISSEEILEKVASLSSRLKKDKALKEITKLRSKLPITSFKDAITSAVESNQVL | failed |
